Reference: patent publication US9206411B2, “Staphylococcal Phage2638A endolysin amidase domain is lytic for Staphylococcus aureus” (priority 2012, dated 2015)

Tests used:
Type in all cases: cell-based
[1] = test system: S. aureus 305; assay: Plate lysis, susceptibility of strains to 2638A (Table 1)
Protocol: (§1) Purified proteins for each construct were diluted in sterile nickel column elution buffer, and 6 μL of lysostaphin (11 μg) or the constructs (0.2 nmoles or ˜11 μg for the repaired construct 2638A 1-180Mut-486) was spotted onto a freshly spread lawn of S. aureus strain NRS119 (SA LinR #12; linezolid resistant) growing cells that had air dried for 30 min on tryptic soy agar (TSA) plates. L=[…] Lysostaphin (Sigma); Spot 1=11 μg; all other constructs are 0.2 nmoles (˜11 μg for the repaired construct 2638A 1-180Mut-486) […]. The spotted plates were air dried for 10 min in a laminar flow hood and incubated overnight in a 37° C. environment. Scoring of the cleared spots occurred within 20 h of plating the cells.
(§2) The Plate Lysis assay results (FIG. 3) agree with the turbidity reduction assay. Each of the M23 peptidase dependent or SH3b-truncating constructs showing weak activity on S. aureus strain Newman strain. In addition to the Plate Lysis results in FIG. 3, we have also examined numerous strains with reduced but real lytic activity (Table 1). However, the plate lysis results with the 2638A endolysin constructs are extremely novel in appearance. Plate lysis results are routinely visualized as a discrete cleared spot on a lawn of bacteria after a single overnight of culture. […] In contrast, the 2638A endolysin is unique in that sometimes this cleared zone requires multiple days to appear. […] Thus, there is also a likelihood that the enzyme might work preferentially on late log or stationary phase cells in the plate lysis assay, as the 3 day old culture is likely not growing as quickly as the freshly-plated overnight culture.

[2] = test system: S. aureus MN8; assay: as above
Protocol: as §1, §2

[3] = test system: S. aureus NRS 382 (MRSA); assay: as above
Protocol: as §1, §2

[4] = test system: S. aureus NRS 385 (MRSA); assay: as above
Protocol: as §1, §2

[5] = test system: S. aureus Newman sm^r; assay: as above
Protocol: as §1, §2

[6] = test system: S. aureus Newman srtA::ermB; assay: as above
Protocol: as §1, §2

[7] = test system: S. aureus Newman ΔdltA; assay: as above
Protocol: as §1, §2

[8] = test system: S. aureus Reynolds (CP-); assay: as above
Protocol: as §1, §2

[9] = test system: S. aureus SA113 ΔtagO; assay: as above
Protocol: as §1, §2

[10] = test system: S. aureus SA113; assay: as above
Protocol: as §1, §2

[11] = test system: S. aureus Tanji 19; assay: as above
Protocol: as §1, §2

[12] = test system: S. aureus Tanji 1; assay: as above
Protocol: as §1, §2

[13] = test system: S. aureus Tanji 20; assay: as above
Protocol: as §1, §2

[14] = test system: S. aureus Tanji 2; assay: as above
Protocol: as §1, §2

[15] = test system: S. aureus Tanji 31; assay: as above
Protocol: as §1, §2

[16] = test system: S. aureus Tanji 48; assay: as above
Protocol: as §1, §2

[17] = test system: S. epidermidis; assay: as above
Protocol: as §1, §2

[18] = test system: S. hyicus; assay: as above
Protocol: as §1, §2

[19] = test system: S. warneri; assay: as above
Protocol: as §1, §2

[20] = test system: S. xylosus; assay: as above
Protocol: as §1, §2

[21] = test system: S. aureus strain NRS119 (SA LinR #12; linezolid resistant); assay: Plate lysis assay (FIG. 3); settings: lawn on TSA plates, observed over days
Protocol: as §1
The Plate Lysis assay results (FIG. 3) agree with the turbidity reduction assay. Each of the M23 peptidase dependent or SH3b-truncating constructs showing weak activity on S. aureus strain Newman strain. In addition to the Plate Lysis results in FIG. 3, we have also examined numerous strains with reduced but real lytic activity (Table 1). However, the plate lysis results with the 2638A endolysin constructs are extremely novel in appearance. Plate lysis results are routinely visualized as a discrete cleared spot on a lawn of bacteria after a single overnight of culture. […]

B1: 2638A Endolysin: 486 amino acid staphylococcal phage 2638A endolysin (SEQ ID NO:4), C-terminally 6×His-tagged; M23 peptidase, amidase, SH3b domains (protein)
chain: MLTAIDYLTKKGWKISSDPRTYDGYPKNYGYRNYHENGINYDEFCGGYHRAFDVYSNETNDVPAVTSGTVIEANDYGNFGGTFVIRDANDNDWIYGHLQRGSMRFVVGDKVNQGDIIGLQGNSNYYDNPMSVHLHLQLRPKDAKKDEKSQVCSGLAMEKYDITNLNAKQDKSKNGSVKELKHIYSNHIKGNKITAPKPSIQGVVIHNDYGSMTPSQYLPWLYARENNGTHVNGWASVYANRNEVLWYHPTDYVEWHCGNQWANANLIGFEVCESYPGRISDKLFLENEEATLKVAADVMKSYGLPVNRNTVRLHNEFFGTSCPHRSWDLHVGKGEPYTTTNINKMKDYFIKRIKHYYDGGKLEVSKAATIKQSDVKQEVKKQEAKQIVKATDWKQNKDGIWYKAEHASFTVTAPEGIITRYKGPWTGHPQAGVLQKGQTIKYDEVQKFDGHVWVSWETFEGETVYMPVRTWDAKTGKVGKLWGEIKLEHHHHHH
modifications: C-terminal His6 tag; Mutated Phage 2638a
notes: M23 peptidase, amidase, SH3b domains
[1]; day 1
  Susceptibility to lysis by 2638A, day 1: − (− = >100 pmol)
[1]; day 3+
  Susceptibility to lysis by 2638A, day 3+: − (− = >100 pmol)
[2]; day 1
  Susceptibility to lysis by 2638A, day 1: − (− = >100 pmol)
[2]; day 3+
  Susceptibility to lysis by 2638A, day 3+: ++ (++ = 10 pmol)
[3]; day 1
  Susceptibility to lysis by 2638A, day 1: − (− = >100 pmol)
[3]; day 3+
  Susceptibility to lysis by 2638A, day 3+: − (− = >100 pmol)
[4]; day 1
  Susceptibility to lysis by 2638A, day 1: − (− = >100 pmol)
[4]; day 3+
  Susceptibility to lysis by 2638A, day 3+: − (− = >100 pmol)
[5]; day 1
  Susceptibility to lysis by 2638A, day 1: − (− = >100 pmol)
[5]; day 3+
  Susceptibility to lysis by 2638A, day 3+: − (− = >100 pmol)
[6]; day 1
  Susceptibility to lysis by 2638A, day 1: − (− = >100 pmol)
[6]; day 3+
  Susceptibility to lysis by 2638A, day 3+: − (− = >100 pmol)
[7]; day 1
  Susceptibility to lysis by 2638A, day 1: − (− = >100 pmol)
[7]; day 3+
  Susceptibility to lysis by 2638A, day 3+: − (− = >100 pmol)
[8]; day 1
  Susceptibility to lysis by 2638A, day 1: − (− = >100 pmol)
[8]; day 3+
  Susceptibility to lysis by 2638A, day 3+: − (− = >100 pmol)
[9]; day 1
  Susceptibility to lysis by 2638A, day 1: +++ (+++ = 1 pmol)
[9]; day 3+
  Susceptibility to lysis by 2638A, day 3+: +++ (+++ = 1 pmol)
[10]; day 1
  Susceptibility to lysis by 2638A, day 1: + (+ = 100 pmol)
[10]; day 3+
  Susceptibility to lysis by 2638A, day 3+: ++ (++ = 10 pmol)
[11]; day 1
  Susceptibility to lysis by 2638A, day 1: − (− = >100 pmol)
[11]; day 3+
  Susceptibility to lysis by 2638A, day 3+: + (+ = 100 pmol)
[12]; day 1
  Susceptibility to lysis by 2638A, day 1: − (− = >100 pmol)
[12]; day 3+
  Susceptibility to lysis by 2638A, day 3+: − (− = >100 pmol)
[13]; day 1
  Susceptibility to lysis by 2638A, day 1: − (− = >100 pmol)
[13]; day 3+
  Susceptibility to lysis by 2638A, day 3+: + (+ = 100 pmol)
[14]; day 1
  Susceptibility to lysis by 2638A, day 1: − (− = >100 pmol)
[14]; day 3+
  Susceptibility to lysis by 2638A, day 3+: + (+ = 100 pmol)
[15]; day 1
  Susceptibility to lysis by 2638A, day 1: − (− = >100 pmol)
[15]; day 3+
  Susceptibility to lysis by 2638A, day 3+: − (− = >100 pmol)
[16]; day 1
  Susceptibility to lysis by 2638A, day 1: − (− = >100 pmol)
[16]; day 3+
  Susceptibility to lysis by 2638A, day 3+: + (+ = 100 pmol)
[17]; day 1
  Susceptibility to lysis by 2638A, day 1: − (− = >100 pmol)
[17]; day 3+
  Susceptibility to lysis by 2638A, day 3+: + (+ = 100 pmol)
[18]; day 1
  Susceptibility to lysis by 2638A, day 1: − (− = >100 pmol)
[18]; day 3+
  Susceptibility to lysis by 2638A, day 3+: − (− = >100 pmol)
[19]; day 1
  Susceptibility to lysis by 2638A, day 1: − (− = >100 pmol)
[19]; day 3+
  Susceptibility to lysis by 2638A, day 3+: − (− = >100 pmol)
[20]; day 1
  Susceptibility to lysis by 2638A, day 1: − (− = >100 pmol)
[20]; day 3+
  Susceptibility to lysis by 2638A, day 3+: − (− = >100 pmol)
[21]
  appearance and persistence of the cleared zone in plate lysis: very broad, ill-defined region of clearing that grows with time, up to four days
